Key:
GPNMB = biological target: T1, GPNMB (Homo sapiens, UniProt Q14956); experiment: BiaCore 2000 biosensor binding of hybridoma supernatant mAb to GPNMB
T1 construct: made in house; host or cells: HEK 293
T1 sequence (Q14956 23-492): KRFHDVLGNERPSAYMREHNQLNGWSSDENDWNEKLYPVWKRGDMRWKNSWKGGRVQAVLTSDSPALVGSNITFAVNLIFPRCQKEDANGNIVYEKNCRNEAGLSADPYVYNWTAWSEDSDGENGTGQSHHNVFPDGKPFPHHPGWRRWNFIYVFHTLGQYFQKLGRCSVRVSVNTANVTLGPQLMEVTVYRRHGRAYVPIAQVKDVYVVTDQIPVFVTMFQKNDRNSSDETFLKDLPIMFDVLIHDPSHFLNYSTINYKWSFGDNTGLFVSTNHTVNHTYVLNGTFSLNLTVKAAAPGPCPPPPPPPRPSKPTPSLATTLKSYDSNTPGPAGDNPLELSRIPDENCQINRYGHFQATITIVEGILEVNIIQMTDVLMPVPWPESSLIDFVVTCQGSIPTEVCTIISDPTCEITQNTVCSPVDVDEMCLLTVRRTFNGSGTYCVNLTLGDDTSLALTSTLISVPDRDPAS
Procedure: Certain Hybridoma cell supernatants (29) were analyzed for binding to GPNMB by BiaCore® 2000 biosensor equipped with a research-grade CMS sensor chip. A 1:25 dilution of cell supernatant was passed over a protein A surface for 5 min followed by washing the surface for 10 mins. Subsequently, GPNMB was injected for 90 sec. over the surface at a concentration of 880 nM followed by dissociation. Double-referenced binding data were obtained by subtracting the signal from a control flow cell and subtracting the baseline drift of a buffer injected just prior to the antigen injection. GPNMB binding ddata for each mAb was normalized for the amount of mAb captured on each surface. Normalized, drift corrected responses were also measured. The sensorgrams were fit to a simple 1:1 kinetic model.

SK-Mel-2 cells = experiment: Flow cytometry of CR011 binding to cell surface CG56972/GPNMB; design: species or system human; conditions: SK-MEL-2, positive control
Procedure: (§1) Flow Cytometry: Quantitative analysis of GPNMB expression on the cell surface of cell lines was determined by flow cytometry. […] Cells were fixed in 1% paraformaldehyde/PBS and examined on a Becton Dickinson FACSCalibur flow cytometer. Data analysis was performed with Becton Dickinson Cell Quest software version 3.3 and the geometric mean fluorescence intensity ratio (GMR) was determined for each cell type.
as §1, with “CG56972” for “GPNMB”, “the” for “the cell”, “cytometry (FACS).” for “cytometry.”

[1] = test system: SK-MEL-2 melanoma xenografts; experiment: Human SK-MEL-2 melanoma xenograft in athymic mice; assay type: in vivo; conditions: CR011-ONC-1, CR011-vcMMAE 5 mg/kg/treatment i.v. q4d x4, components at doses identical to those in the immunoconjugate
Procedure: Test Animals: Five- to 6-week old athymic mice (CD-1 nu/nu females), used for human tumor xenografts, were obtained from Harlan Laboratories (Indianapolis, Ind.). Animals were housed in specific pathogen-free conditions, according to the guidelines of the Association for Assessment and Accreditation of Laboratory Animal Care International (AAALAC International). Test animals were provided pelleted food and water ad libitum and kept in a room with conditioned ventilation (HVAC), temperature (22°±2° C.), relative humidity (55%±15%), and photoperiod (12 hr). All studies were carried out with approved institutional animal care and use protocols.
Human Melanoma Xenograft Models. The tumor inhibitory activity of the CR011-MMAE immunoconjugate was measured in an anti-tumor xenograft model using athymic mice, according to published methods (see Geran et al., Cancer Chemother. Rep. 3:1-104 (1972)). […] When tumors became established (10-20 days), the animals were pair-matched into groups (n=6 mice/group), and treatment was administered by intravenous injection (tail vein). […]
The effects of treatment were monitored by repetitive tumor measurements across 2 diameters with Vernier calipers; tumor size (in mg) was calculated using a standard formula, (W^2×L)/2, assuming a specific gravity of 1.0. Tumor size and body weights were assessed twice weekly. […]

[2] = test system: lymphoma or leukemia cell lines; experiment: Clonogenic assay with 1.15.1-AE (methylcellulose); assay type: cell-based; conditions: various concentrations
Procedure: Lymphoma or leukemia cell lines were mixed with methylcellulose base media (R&D Systems, USA) and in various concentrations of unconjugated and Auristatin E-conjugated 1.15.1 antibody before plating onto 6-well tissue culture plates (Becton Dickinson, Franklin Lakes, N.J., USA). […] Plates were incubated at 37° C. and examined daily. On days 14-18, colonies on the plates were counted.

[3] = mAb captured on protein A, GPNMB 880 nM, 1:1 kinetic model

B1: Mab1.15.1 (protein, listed as Homo sapiens)
chain: QVQLQESGPGLVKPSQTLSLTCTVSGGSISSFNYYWSWIRHHPGKGLEWIGYIYYSGSTYSNPSLKSRVTISVDTSKNQFSLTLSSVTAADTAVYYCARGYNWNYFDYWGQGTLVTVSSA
GPNMB; 1:25 dilution of cell supernatant
  binding to GPNMB: strong binding
GPNMB; [3]
  Kd: 52 nM
  ka: 16524 M⁻¹ s⁻¹
  kd: 0.000855 s⁻¹
SK-Mel-2 cells
  cell surface staining: strong cell surface staining
[1]; listed as CR011 antibody alone
  tumor response: lack of tumor growth inhibition
[1]; listed as unconjugated CR011
  tumor response: lack of responses
[2]
  effect on growth of all antigen positive hematopoietic cell lines: no effect on growth

— patent US8846873B2, “Antibodies directed to GPNMB and uses thereof” (Celldex Therapeutics, Inc., priority 2004, dated 2014)
